For experiment [1], the target named is ADAM9 on human tumour cells (LS174T, HepG2, Calu-3) (human) (UniProt Q13443). As to the kind of experiment: flow cytometry on HepG2 cells, negative control, 0.003815 nM. A general note: Flow cytometry measures light scatter and fluorescence of single cells or particles in a stream.
For experiment [2] the target is unchanged. Briefly: flow cytometry on HepG2 cells, negative control, 250 nM.
Experiment [3] shares this target. As to the kind of experiment: flow cytometry on LS174T cells, negative control, 0.003815 nM.
The target is the same in experiment [4]. As to the kind of experiment: flow cytometry on HepG2 cells, negative control, 0.061035 nM.
For experiment [5] the target is unchanged. As to the kind of experiment: flow cytometry on HepG2 cells, negative control, 0.000238 nM.
The target is the same in experiment [6]. Briefly: flow cytometry on LS174T cells, negative control, 62.5 nM.
Experiment [7] shares this target. Briefly: flow cytometry on LS174T cells, negative control, 15.625 nM.
Experiment [8] shares this target. Briefly: flow cytometry on HepG2 cells, negative control, 3.906250 nM.
The target is the same in experiment [9]. As to the kind of experiment: flow cytometry on HepG2 cells, negative control, 0.976563 nM.
Experiment [10] has the same target. Briefly: flow cytometry on LS174T cells, negative control, 0.976563 nM.
The target is the same in experiment [11]. As to the kind of experiment: flow cytometry on LS174T cells, negative control, 0.061035 nM.
The target is the same in experiment [12]. As to the kind of experiment: flow cytometry on HepG2 cells, negative control, 0.000954 nM.
The target is the same in experiment [13]. As to the kind of experiment: flow cytometry on HepG2 cells, negative control, 1000 nM.
The target is the same in experiment [14]. As to the kind of experiment: flow cytometry on LS174T cells, negative control, 0.015259 nM.
For experiment [15] the target is unchanged. Briefly: flow cytometry on HepG2 cells, negative control, 62.5 nM.
For experiment [16] the target is unchanged. As to the kind of experiment: flow cytometry on LS174T cells, negative control, 1000 nM.
The target is the same in experiment [17]. As to the kind of experiment: flow cytometry on HepG2 cells, negative control, 0.015259 nM.
The target is the same in experiment [18]. Briefly: flow cytometry on HepG2 cells, negative control, 15.625 nM.
For experiment [19] the target is unchanged. As to the kind of experiment: flow cytometry on LS174T cells, negative control, 0.000954 nM.
For experiment [20] the target is unchanged. As to the kind of experiment: flow cytometry on HepG2 cells, negative control, 0.244141 nM.
Experiment [21] has the same target. As to the kind of experiment: flow cytometry on LS174T cells, negative control, 0.244141 nM.
Experiment [22] has the same target. As to the kind of experiment: flow cytometry on LS174T cells, negative control, 250 nM.
Experiment [23] has the same target. As to the kind of experiment: flow cytometry on LS174T cells, negative control, 3.906250 nM.
Experiment [24] has the same target. As to the kind of experiment: flow cytometry on HepG2 cells, 0.976563 nM.
Experiment [25] shares this target. Briefly: flow cytometry on HepG2 cells, 0.000954 nM.
Experiment [26] shares this target. Briefly: flow cytometry on HepG2 cells, 0.244141 nM.
Experiment [27] shares this target. Briefly: flow cytometry on HepG2 cells, 250 nM.
For experiment [28] the target is unchanged. As to the kind of experiment: flow cytometry on HepG2 cells, 1000 nM.
Experiment [29] has the same target. Briefly: flow cytometry on HepG2 cells, 3.906250 nM.
Experiment [30] has the same target. Briefly: flow cytometry on HepG2 cells, 62.5 nM.
The target is the same in experiment [31]. As to the kind of experiment: flow cytometry on HepG2 cells, 15.625 nM.
Experiment [32] shares this target. Briefly: flow cytometry on HepG2 cells, 0.000238 nM.
Experiment [33] shares this target. Briefly: flow cytometry on HepG2 cells, 0.061035 nM.
The target is the same in experiment [34]. As to the kind of experiment: flow cytometry on HepG2 cells, 0.015259 nM.
Experiment [35] shares this target. Briefly: flow cytometry on HepG2 cells, 0.003815 nM.
The target is the same in experiment [36]. Briefly: flow cytometry on LS174T cells, 0.003815 nM.
Experiment [37] has the same target. Briefly: flow cytometry on LS174T cells, 3.906250 nM.
Experiment [38] has the same target. As to the kind of experiment: flow cytometry on LS174T cells, 0.976563 nM.
Experiment [39] has the same target. As to the kind of experiment: flow cytometry on LS174T cells, 0.000954 nM.
The target is the same in experiment [40]. As to the kind of experiment: flow cytometry on LS174T cells, 1000 nM.
Experiment [41] has the same target. Briefly: flow cytometry on LS174T cells, 0.244141 nM.
For experiment [42] the target is unchanged. Briefly: flow cytometry on LS174T cells, 0.061035 nM.
The target is the same in experiment [43]. As to the kind of experiment: flow cytometry on LS174T cells, 250 nM.
Experiment [44] has the same target. As to the kind of experiment: flow cytometry on LS174T cells, 0.015259 nM.
For experiment [45] the target is unchanged. Briefly: flow cytometry on LS174T cells, 62.5 nM.
Experiment [46] shares this target. As to the kind of experiment: flow cytometry on LS174T cells, 15.625 nM.

ADAM9 on human tumour cells (LS174T, HepG2, Calu-3) (human), sequence (Q13443 29-819): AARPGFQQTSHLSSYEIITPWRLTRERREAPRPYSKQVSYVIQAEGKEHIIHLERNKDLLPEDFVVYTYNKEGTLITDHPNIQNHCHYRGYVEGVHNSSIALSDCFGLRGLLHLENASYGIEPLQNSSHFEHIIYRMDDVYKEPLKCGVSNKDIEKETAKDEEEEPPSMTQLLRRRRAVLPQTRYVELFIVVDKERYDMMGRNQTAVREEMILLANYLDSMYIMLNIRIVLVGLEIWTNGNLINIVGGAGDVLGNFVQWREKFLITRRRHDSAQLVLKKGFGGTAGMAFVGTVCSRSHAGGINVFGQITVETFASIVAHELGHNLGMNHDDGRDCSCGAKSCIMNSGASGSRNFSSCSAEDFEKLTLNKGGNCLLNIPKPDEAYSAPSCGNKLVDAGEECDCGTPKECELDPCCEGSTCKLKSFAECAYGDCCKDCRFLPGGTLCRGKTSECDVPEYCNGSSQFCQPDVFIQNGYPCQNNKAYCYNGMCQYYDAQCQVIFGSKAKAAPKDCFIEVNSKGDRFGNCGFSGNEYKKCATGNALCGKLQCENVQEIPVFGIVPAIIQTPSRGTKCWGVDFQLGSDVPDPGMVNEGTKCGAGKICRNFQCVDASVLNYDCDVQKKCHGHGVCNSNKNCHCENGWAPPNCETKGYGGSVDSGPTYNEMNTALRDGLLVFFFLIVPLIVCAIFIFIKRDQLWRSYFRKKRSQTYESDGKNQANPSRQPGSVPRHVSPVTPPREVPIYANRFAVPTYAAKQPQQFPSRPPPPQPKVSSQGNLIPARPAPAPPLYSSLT

Consider “anti-HIV human IgG antibody (iso-IgG1, produced by WuXi AppTec)”, for which the Mean fluorescence intensity (MFI) in [1] came out at 349 MFI; in experiment [2], 389 MFI; in [4], 377 MFI; in experiment [5], 361 MFI; in experiment [8], 361 MFI; in experiment [9], 360 MFI. Moreover, the Mean fluorescence intensity (MFI) in experiment [12] came out at 365 MFI; in experiment [13], 690 MFI; in experiment [15], 386 MFI; in [17] it was 371 MFI; in experiment [18], 364 MFI; in experiment [20], 363 MFI. Also, the Mean fluorescence intensity turned out to be 254 MFI in experiment [3]; 229 MFI in experiment [6]; 209 MFI in [7]; 212 MFI in [10]; 202 MFI in experiment [11]; 213 MFI in experiment [14]. Also, the Mean fluorescence intensity in experiment [16] was 368 MFI; in experiment [19] it was 220 MFI; in experiment [21], 208 MFI; in [22], 269 MFI; in [23], 203 MFI.

B1: Ab16-X1 (antibody, human IgG1, kappa, V domains shown)
VH: QVQLQQPGTEVVKPGASVKLSCKASGFTFPLYWMHWVRQRPGRGLEWIGRIIPIFGHTKYNEKFKNKATLTADESSSTAYMELRSLTSDDSAVYYCARGGYYYYPREGFLDYWGQGTSVTVSS
VL: DIVMTQSPASLSVSPGERASISCRSSQSVDYSGDSYMNWYQQKPGQSPRLLIYAASDRESGVPDRFSGSGSGTDFTLKISRVEEEDAGTYYCQQSREDPFTFGQGTKVDIKR
modifications: linker-payload X1 (camptothecin derivative) conjugated after TCEP reduction; DAR p = 7.8 for the whole antibody; positions not given
Regarding B1, the Mean fluorescence intensity (MFI) in experiment [24] was 1790 MFI; in [25] it was 376 MFI; in [26], 1090 MFI; in experiment [27] it was 16600 MFI; in experiment [28] it was 17400 MFI; in [29], 1780 MFI. Moreover, the Mean fluorescence intensity (MFI) in [30] worked out at 3290 MFI; in [31], 2960 MFI; in experiment [32], 370 MFI; in experiment [33] it was 623 MFI; in experiment [34], 451 MFI; in experiment [35], 396 MFI.

B2: Ab16-X2 (antibody, human IgG1, kappa, V domains shown)
VH: B1 VH
VL: B1 VL
modifications: linker-payload X2 (camptothecin derivative) conjugated after TCEP reduction; DAR p = 7.9 for the whole antibody; positions not given
Consider B2, for which the Mean fluorescence intensity in [36] turned out to be 219 MFI; in experiment [37], 2380 MFI; in experiment [38], 1960 MFI; in experiment [39], 223 MFI; in [40], 1130 MFI; in experiment [41], 954 MFI. Further, the Mean fluorescence intensity was found to be 447 MFI in [42]; 2130 MFI in experiment [43]; 268 MFI in [44]; 2160 MFI in [45]; 2400 MFI in [46].

The values above are taken from patent EP4806467A2.
